This series relates to Rev full-length wild-type (HIV-1 (HXB3?)). Briefly: EMSA. The following applies: 10 mM HEPES pH 7.5, 0.1 M KCl (0.3 M KCl and no tRNA for SYBR Green II assay), 1 mM MgCl2, 0.5 mM EDTA, 2 mM DTT, 10% glycerol, 50 ug/ml yeast tRNA, 0.2 mg/ml ….

Usually Kd stands for the equilibrium constant for the complex coming apart.

As for RRE full-length 234 nt, the equilibrium dissociation constant (Kd) amounted to 0.145 nM.

Source of the values: publication PMC4360532.
